Results on 29 molecules are retold here after patent US20190153059A1 (ADEPTHERA, published 2019).

Read-outs that look alike come from different tables or passages of the source. * marks the point of attachment. Palmitoyl = CCCCCCCCCCCCCCCC(=O)*; miniPEG = mini-PEG spacer unit

What all share (assay): cell-based or functional assay
In assay [1] the target is T1, CLR/RAMP2 receptor (UniProt Q16602 23-461; O60895 43-175, limits assumed).
The target of assay [2] is T2, CLR/RAMP1 receptor (UniProt Q16602 23-461; O60894 27-148, limits assumed).
Assay [3] has as its target T1, CLR/RAMP2 receptor. This is another data set of the same source.
In assay [4] the target is T3, CLR/RAMP3 receptor (UniProt Q16602 23-461; O60896 24-148, limits assumed).
Assay [5] concerns the target T2, CLR/RAMP1 receptor. The source holds these as a separate data set.
In assay [6] the target is T1, CLR/RAMP2 receptor. The source holds these as a separate data set.
Assay [7] concerns the target T3, CLR/RAMP3 receptor. This is another data set of the same source.
In assay [8] the target is T2, CLR/RAMP1 receptor. The source holds these as a separate data set.
Assay [9] has as its target T1, CLR/RAMP2 receptor. This is another data set of the same source.
For assay [10], the target named is neurotensin receptor 1 (NTSR1) (UniProt P30989 1-418, limits assumed).
Sequence of neurotensin receptor 1 (NTSR1) (P30989 whole entry): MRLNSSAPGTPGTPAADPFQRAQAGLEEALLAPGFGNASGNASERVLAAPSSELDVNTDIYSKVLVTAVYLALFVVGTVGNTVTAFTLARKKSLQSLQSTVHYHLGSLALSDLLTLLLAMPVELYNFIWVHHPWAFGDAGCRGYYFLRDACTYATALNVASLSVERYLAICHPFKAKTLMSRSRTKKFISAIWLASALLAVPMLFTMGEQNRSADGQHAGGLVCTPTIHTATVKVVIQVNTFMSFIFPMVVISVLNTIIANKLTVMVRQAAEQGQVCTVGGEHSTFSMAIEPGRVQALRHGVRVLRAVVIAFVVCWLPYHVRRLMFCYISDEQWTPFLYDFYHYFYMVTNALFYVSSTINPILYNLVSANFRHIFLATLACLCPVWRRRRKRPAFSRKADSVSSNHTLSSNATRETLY

T1 sequence (Q16602 23-461 limits assumed, chain 1 of 2): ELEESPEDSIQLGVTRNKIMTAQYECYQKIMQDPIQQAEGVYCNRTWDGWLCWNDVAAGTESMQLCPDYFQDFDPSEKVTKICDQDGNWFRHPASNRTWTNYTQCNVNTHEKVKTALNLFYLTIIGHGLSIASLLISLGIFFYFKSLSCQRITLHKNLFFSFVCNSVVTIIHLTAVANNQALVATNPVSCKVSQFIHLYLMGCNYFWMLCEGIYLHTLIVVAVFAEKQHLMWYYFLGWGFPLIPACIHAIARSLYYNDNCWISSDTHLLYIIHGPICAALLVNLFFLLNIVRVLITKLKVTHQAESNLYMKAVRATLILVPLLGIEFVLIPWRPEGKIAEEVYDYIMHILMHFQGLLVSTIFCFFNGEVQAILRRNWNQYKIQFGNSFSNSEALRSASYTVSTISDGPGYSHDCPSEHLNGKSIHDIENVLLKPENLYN
T1 sequence (O60895 43-175 limits assumed, chain 2 of 2): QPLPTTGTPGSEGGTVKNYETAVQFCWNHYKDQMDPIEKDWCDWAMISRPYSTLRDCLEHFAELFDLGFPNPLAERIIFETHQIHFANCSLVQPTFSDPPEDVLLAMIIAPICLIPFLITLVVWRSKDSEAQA
T3 sequence (Q16602 23-461 limits assumed, chain 1 of 2): as the sequence (Q16602 23-461 limits assumed, chain 1 of 2) above
T3 sequence (O60896 24-148 limits assumed, chain 2 of 2): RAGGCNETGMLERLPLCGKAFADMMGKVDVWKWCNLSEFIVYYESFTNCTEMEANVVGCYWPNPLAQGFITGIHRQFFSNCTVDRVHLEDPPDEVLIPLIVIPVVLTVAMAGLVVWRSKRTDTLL
T2 sequence (Q16602 23-461 limits assumed, chain 1 of 2): as the sequence (Q16602 23-461 limits assumed, chain 1 of 2) above
T2 sequence (O60894 27-148 limits assumed, chain 2 of 2): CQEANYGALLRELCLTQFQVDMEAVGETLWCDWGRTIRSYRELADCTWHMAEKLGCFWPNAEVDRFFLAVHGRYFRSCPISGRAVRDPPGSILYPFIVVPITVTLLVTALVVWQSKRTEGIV

“Wild type ADM positive (human ADM positive control) (from UniProt P35318 95-146) (peptide)” had a CLR/RAMP2 Max Activity (% of positive controls) in the assay with CLR/RAMP2 receptor [1] of 100.
With Palmitoyl-KVQKLAHQIYQFTDKDSAPVDPSSPHSY-NH2 [SEQ ID NO: 121], the “CLR/RAMP1 IC50” value with CLR/RAMP1 receptor [2] is 3.2 nM. Besides, in the assay with CLR/RAMP2 receptor [3], the “CLR/RAMP2 IC50” value was 4.9 nM. For the same molecule, the “CLR/RAMP3 IC50” value with CLR/RAMP3 receptor [4] is 1.8 nM.
For the molecule Palmitoyl-KGCRFGTCTVQKLAHQIYQFTDKDSAPVDPSSPHSY-NH2 (cysteine pairing not given here) [SEQ ID NO: 92], the “CLR/RAMP1 EC50” value in the assay with CLR/RAMP1 receptor [5] came out at 0.4 nM. The “CLR/RAMP2 EC50” value with CLR/RAMP2 receptor [6] stood at 0.3 nM. The “CLR/RAMP3 EC50” value in the assay with CLR/RAMP3 receptor [7] stood at 0.2 nM.
Take Palmitoyl-KVQKLAHQISAPVDPSSPHSY-NH2 [SEQ ID NO: 123]: the “CLR/RAMP1 IC50” value in the assay with CLR/RAMP1 receptor [2] worked out at 4.7 nM. The “CLR/RAMP2 IC50” value with CLR/RAMP2 receptor [3] is 50 nM.
The corresponding values for Palmitoyl-TVQKLAHQIYQFTDKDKDNSAPVDPSSPHSY-NH2 [SEQ ID NO: 77] are 9.9 nM and 47 nM.
For the molecule Palmitoyl-KVQKLNFVPTNVGSKAF-NH2 [SEQ ID NO: 142], the “CLR/RAMP1 Max Activity (antagonist)” value with CLR/RAMP1 receptor [2] is 100 % of positive control. Moreover, the “CLR/RAMP2 Max Activity (antagonist)” value with CLR/RAMP2 receptor [3] is 80 % of positive control.
In the case of MiniPEG-KVQKLAHQIYSAPVDPSSPHSY-NH2 (also: K(Pal), Lys not given here) [SEQ ID NO: 114], in the assay with CLR/RAMP1 receptor [2], the “CLR/RAMP1 IC50” value was found to be 4.8 nM. The “CLR/RAMP2 IC50” value with CLR/RAMP2 receptor [3] came to 146 nM. Also, in the assay with CLR/RAMP3 receptor [4], the “CLR/RAMP3 IC50” value was determined as 8.4 nM.
The corresponding values for Ace-TVQKLAHRLWQLMGPDKDNVAPRSKISPQGY-NH2 [SEQ ID NO: 116] are 152 nM, 7.3 nM and 53 nM.
Regarding Palmitoyl-KVQKLAHQIYQFTDKDVAPRSKISPQGY-NH2 [SEQ ID NO: 119], the “CLR/RAMP1 IC50” value with CLR/RAMP1 receptor [2] worked out at 21 nM. For the same molecule, the “CLR/RAMP2 IC50” value with CLR/RAMP2 receptor [3] was 0.6 nM. Moreover, the “CLR/RAMP3 IC50” value with CLR/RAMP3 receptor [4] came out at 1.5 nM.

B1: AGTRL1 and CLR/RAMP agonist MRL (SEQ ID NO: 228) (peptide)
peptide: XRPRLSHKGPLPFKGCRFGTCTVQKLAHQIYQFTDKDVAPRSKISPQGY
modifications: not fully specified; (Glp) at N-terminus; (Nle) in RPRLSHKGP(Nle)PF; miniPEG before K(PAL); K(PAL); -NH2
In the case of B1, in the assay with CLR/RAMP1 receptor [8], the “CLR/RAMP1 EC50” value was found to be 0.6 nM and the “CLR/RAMP1 Max Activity” value was 130 % of positive controls. Also, in the assay with CLR/RAMP2 receptor [9], the “CLR/RAMP2 EC50” value is 2 nM and the “CLR/RAMP2 Max Activity” value is 74 % of positive controls.
Take miniPEG-KGCRFGTCTVQKLAHQIYQFTDKDVAPRSKISPQGY-NH2 (ends and bridges not checked; also: K(PAL), position not given here) [SEQ ID NO: 101]: the “CLR/RAMP2 EC50” value with CLR/RAMP2 receptor [6] stood at 0.3 nM. In the assay with CLR/RAMP3 receptor [7], the “CLR/RAMP3 EC50” value amounted to 0.5 nM.
As for Ace-VTHRLAGLLSRFTDKDKDNVAPRSKISPQGY-NH2 [SEQ ID NO: 115], in the assay with CLR/RAMP1 receptor [2], the “CLR/RAMP1 IC50” value stood at 1880 nM. The “CLR/RAMP2 IC50” value in the assay with CLR/RAMP2 receptor [3] stood at 117 nM. Moreover, the “CLR/RAMP3 IC50” value in the assay with CLR/RAMP3 receptor [4] stood at 115 nM.
Regarding Ac-NFVPTNVGPFAF-NH2 [SEQ ID NO: 144], in the assay with CLR/RAMP2 receptor [3], the “CLR/RAMP2 IC50” value was over 10000 nM and the “CLR/RAMP2 Max Activity (antagonist)” value is 0 % of positive control.
Turning to XLYENKPRRPYILKGCRFGTCTVQKLAHQIYQFTDKDVAPRSKISPQGY (Pyr(glu)- at N-terminus; miniPEG between LYENKPRRPYIL and K(PAL); K(PAL); -NH2) [NTSR1 and CLR/RAMP agonist MRL (SEQ ID NO: 223)], in the assay with CLR/RAMP1 receptor [8], the “CLR/RAMP1 EC50” value is 0.8 nM and the “CLR/RAMP1 Max Activity” value was 102 % of positive controls. Also, in the assay with CLR/RAMP2 receptor [9], the “CLR/RAMP2 EC50” value is 1 nM and the “CLR/RAMP2 Max Activity” value is 70 % of positive controls.
Take Palmitoyl-KVQKLAHQIYQFTDKSAPVDPSSPHSY-NH2 [SEQ ID NO: 125]: the “CLR/RAMP1 IC50” value with CLR/RAMP1 receptor [2] came to 7 nM. Moreover, the “CLR/RAMP2 IC50” value in the assay with CLR/RAMP2 receptor [3] was 7.1 nM.
As to Palmitoyl-KVQNLSAPVDPSSPHSY-NH2 [SEQ ID NO: 141], in the assay with CLR/RAMP1 receptor [2], the “CLR/RAMP1 Max Activity (antagonist)” value is 43 % of positive control. Further, the “CLR/RAMP2 Max Activity (antagonist)” value in the assay with CLR/RAMP2 receptor [3] was 14 % of positive control.
In the case of Palmitoyl-KGCRFGTCTVQKLAHQIYQFTDKDVAPRSKISPQGY-NH2 (ends and bridges not checked) [SEQ ID NO: 103], the “CLR/RAMP1 EC50” value with CLR/RAMP1 receptor [5] amounted to 4.5 nM. For the same molecule, in the assay with CLR/RAMP2 receptor [6], the “CLR/RAMP2 EC50” value worked out at 0.7 nM. In the assay with CLR/RAMP3 receptor [7], the “CLR/RAMP3 EC50” value was 0.3 nM.
As to Pal-KVQKLAHQSAPVDPSSPHSY-NH2 [SEQ ID NO: 124], in the assay with CLR/RAMP1 receptor [2], the “CLR/RAMP1 Max Activity (antagonist)” value is 95 % of positive control. Besides, in the assay with CLR/RAMP2 receptor [3], the “CLR/RAMP2 Max Activity (antagonist)” value was 103 % of positive control. In the assay with CLR/RAMP3 receptor [4], the “CLR/RAMP3 Max Activity (antagonist)” value is 102 % of positive control.
With Palmitoyl-KVQKLAHQIYSAPVDPSSPHSY-NH2 [SEQ ID NO: 122], the “CLR/RAMP1 IC50” value with CLR/RAMP1 receptor [2] was 7.3 nM. The “CLR/RAMP2 IC50” value with CLR/RAMP2 receptor [3] is 61 nM. In addition, the “CLR/RAMP3 IC50” value with CLR/RAMP3 receptor [4] came out at 4.1 nM.
The corresponding values for MiniPEG-KVQKLAHQIYQFTDKDSAPVDPSSPHSY-NH2 (also: K(Pal), Lys not given here) [SEQ ID NO: 112] are 1.8 nM, 5.3 nM and 2.3 nM.
In the case of Ac-TVQKLAHQIYQFTDKDKDNSAPVDPSSPHSY-NH2 [SEQ ID NO: 76], the “CLR/RAMP1 IC50” value with CLR/RAMP1 receptor [2] was determined as 1120 nM. Moreover, the “CLR/RAMP2 IC50” value with CLR/RAMP2 receptor [3] came to 289 nM.
Consider miniPEG-KGCRFGTCTVQKLAHQIYQFTDKDSAPVDPSSPHSY-NH2 (cysteine pairing not given here; also: K(PAL) present, lysine not given here) [SEQ ID NO: 48], for which the “CLR/RAMP1 EC50” value with CLR/RAMP1 receptor [5] was found to be 0.3 nM. In the assay with CLR/RAMP2 receptor [6], the “CLR/RAMP2 EC50” value was found to be 0.2 nM. The “CLR/RAMP3 EC50” value with CLR/RAMP3 receptor [7] is 0.07 nM.

B2: SSTR2 and CLR/RAMP MRL (SEQ ID NO: 218) (peptide)
peptide: FCFWKTCTKVQKLAHQIYQFTDKDVAPRSKISPQGY
modifications: (D-Phe) at position 1 and (D-Trp) in (D-Phe)CF(D-Trp)KTCT; miniPEG before K(Pal); K(Pal); -NH2
In the case of B2, in the assay with CLR/RAMP1 receptor [8], the “CLR/RAMP1 IC50” value amounted to 2 nM and the “CLR/RAMP1 Max Activity (antagonist)” value was 102 % of positive controls. Further, in the assay with CLR/RAMP2 receptor [9], the “CLR/RAMP2 IC50” value was under 0.5 nM and the “CLR/RAMP2 Max Activity (antagonist)” value was 87 % of positive controls.
For Palmitoyl-KVQNLSHRLWQLMGPAGSAPVDPSSPHSY-NH2 [SEQ ID NO: 120], the “CLR/RAMP1 IC50” value with CLR/RAMP1 receptor [2] was found to be 5.8 nM. Moreover, the “CLR/RAMP2 IC50” value in the assay with CLR/RAMP2 receptor [3] was found to be 85 nM. Also, the “CLR/RAMP3 IC50” value with CLR/RAMP3 receptor [4] was determined as 9.2 nM.

B3: BDKRB1 antagonist and CLR/RAMP agonist MRL (SEQ ID NO: 231) (peptide)
peptide: KRPPGFSIKGCRFGTCTVQKLAHQIYQFTDKDVAPRSKISPQGY
modifications: Ace- at N-terminus; D/Nal in KRPPGFS-D/Nal-I; miniPEG before K(PAL); K(PAL); -NH2
As for B3, in the assay with CLR/RAMP2 receptor [9], the “CLR/RAMP2 EC50” value is 1 nM and the “CLR/RAMP2 Max Activity” value is 46 % of positive controls.
On to miniPEG-K(Palmitoyl)VQKLAHQIYQFTDKDKDNSAPVDPSSPHSY-NH2 [SEQ ID NO: 78], for which, in the assay with CLR/RAMP1 receptor [2], the “CLR/RAMP1 IC50” value was determined as 4.8 nM and the “CLR/RAMP1 Max Activity (antagonist)” value was 104 % of positive control. Moreover, in the assay with CLR/RAMP2 receptor [3], the “CLR/RAMP2 IC50” value was determined as 34 nM and the “CLR/RAMP2 Max Activity (antagonist)” value was 107 % of positive control. For the same molecule, in the assay with CLR/RAMP3 receptor [4], the “CLR/RAMP3 IC50” value was found to be 0.8 nM and the “CLR/RAMP3 Max Activity (antagonist)” value is 101 % of positive control.
As to miniPEG-KGCRFGTCTVQKLAHQIYQFTDKDKDNVAPRSKISPQGY-NH2 (ends and bridges not checked; also: K(PAL), position not given here) [SEQ ID NO: 69], in the assay with CLR/RAMP1 receptor [5], the “CLR/RAMP1 Max Activity” value was 70 % of positive control. In the assay with CLR/RAMP2 receptor [6], the “CLR/RAMP2 EC50” value was 0.6 nM. Further, the “CLR/RAMP3 EC50” value with CLR/RAMP3 receptor [7] worked out at 0.6 nM.
Turning to miniPEG-KGCRFGTCTVQKLAHQIYQFTDKDKDNSAPVDPSSPHSY-NH2 (cysteine pairing not given here; also: K(PAL) present, lysine not given here) [SEQ ID NO: 28], in the assay with CLR/RAMP1 receptor [5], the “CLR/RAMP1 EC50” value stood at 0.3 nM. In the assay with CLR/RAMP3 receptor [7], the “CLR/RAMP3 EC50” value stood at 0.06 nM.

B4: NTSR1 agonist and CLR/RAMP antagonist MRL (SEQ ID NO: 224) (peptide)
peptide: XLYENKPRRPYILKVQKLSAPVDPSSPHSY
modifications: not fully specified; Pyr(glu)- at N-terminus; miniPEG between LYENKPRRPYIL and K(Pal); K(Pal); -NH2
Regarding B4, in the assay with CLR/RAMP1 receptor [8], the “CLR/RAMP1 IC50” value is under 0.5 nM and the “CLR/RAMP1 Max Activity (antagonist)” value was 99 % of positive controls. In the assay with CLR/RAMP2 receptor [9], the “CLR/RAMP2 IC50” value was found to be 1.5 nM and the “CLR/RAMP2 Max Activity (antagonist)” value is 100 % of positive controls. For the same molecule, in assay [10], the “NTSR1 EC50 (calcium flux assay)” value was 26 nM and the “NTSR1 Max Activity” value is 57 % of positive controls.
